T1: human LAG-3 (Lymphocyte Activation Gene-3), native or transduced, on the cell surface (UniProt P18627 23-525)
T1 chain: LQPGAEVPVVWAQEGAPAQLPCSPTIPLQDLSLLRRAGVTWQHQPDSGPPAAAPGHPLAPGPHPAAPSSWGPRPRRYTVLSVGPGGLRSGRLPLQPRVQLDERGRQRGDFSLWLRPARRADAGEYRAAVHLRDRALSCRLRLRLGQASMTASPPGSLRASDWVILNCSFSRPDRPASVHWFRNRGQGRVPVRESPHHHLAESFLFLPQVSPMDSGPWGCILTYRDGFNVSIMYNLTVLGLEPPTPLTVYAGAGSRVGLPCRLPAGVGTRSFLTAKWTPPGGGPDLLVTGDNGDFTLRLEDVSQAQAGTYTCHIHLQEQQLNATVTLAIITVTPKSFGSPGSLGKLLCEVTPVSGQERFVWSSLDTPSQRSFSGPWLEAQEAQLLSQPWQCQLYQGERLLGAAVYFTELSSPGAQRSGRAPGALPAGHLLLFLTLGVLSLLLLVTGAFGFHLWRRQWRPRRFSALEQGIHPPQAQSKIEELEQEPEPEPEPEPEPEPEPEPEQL


Columns and labels:
[1] = molecular target: T1, human LAG-3 (Lymphocyte Activation …); assay: FACS binding; activated human CD4+ T cells
D1D4 construct = assay: SPR (Biacore)

Binder | EC50 [1] [nM] | Kd (D1D4 construct) [nM]
LAG3.7-G4P (antibody, V domains shown) VH: QVQLQQWGAGLLKPSETLSLTCAVYGGSFSDYYWNWIRQPPGKGLEWIGEINHGGGTNSNPSLKSRVTLSLDTSKNQFSLKLRSVTAADTAVYYCAFGYSDYEYNWFDPWGQGTLVTVSS VL: EIVLTQSPATLSLSPGERATLSCRASQSISSYLAWYQQKPGQAPRLLIYDASNRATGIPARFSGSGSGTDFTLTISSLEPEDFAVYYCQQRSNWPLTFGQGTNLEIK | 0.33 | 
LAG3.8 (antibody, V domains shown) VH: QVQLQQWGAGLLKPSETLSLTCAVYGGSFSDYYWNWIRQPPGKGLEWIGEINHIGNTNSNPSLKSRVTLSLDTSKNQFSLKLRSVTAADTAVYYCAFGYSDYEYNWFDPWGQGTLVTVSS VL: EIVLTQSPATLSLSPGERATLSCRASQSISSYLAWYQQKPGQAPRLLIYDASNRATGIPARFSGSGSGTDFTLTISSLEPEDFAVYYCQQRSNWPLTFGQGTNLEIKR |  | 0.3
LAG3.8 antibody variant of LAG3.1 (antibody, V domains shown) VH: QVQLQQWGAGLLKPSETLSLTCAVYGGSFSDYYWNWIRQPPGKGLEWIGEINHIGNTNSNPSLKSRVTLSLDTSKNQFSLKLRSVTAADTAVYYCAFGYSDYEYNWFDPWGQGTLVTVSS VL: EIVLTQSPATLSLSPGERATLSCRASQSISSYLAWYQQKPGQAPRLLIYDASNRATGIPARFSGSGSGTDFTLTISSLEPEDFAVYYCQQRSNWPLTFGQGTNLEIKR | 0.19 | 
